Data taken from patent EP4574844A1 (Numab Therapeutics AG, dated 2025).
Where two headings read alike, the source gives them in different places. Values belong to the binder of their own block, whether it stands above or below them.

Columns and labels:
[1] = biological target: T1, human CD47 on the cell surface (human, UniProt Q08722 19-323); test: cell-based or functional assay
[2] = biological target: T1, human CD47 on the cell surface; test: cell-based or functional assay; remark: listed apart in the source
[3] = biological target: T1, human CD47 on the cell surface; test: cell-based or functional assay; remark: listed apart in the source
recombinant human CD47 [4] = biological target: T2, recombinant human CD47 (human, UniProt Q08722 19-139, limits assumed); test: SPR, CD47 immobilised, scFv as analyte, 1:1 Langmuir
[5] = biological target: T3, human LILRB2 on the cell surface (human, UniProt Q8N423 22-597); test: cell-based or functional assay
[6] = biological target: T3, human LILRB2 on the cell surface; test: cell-based or functional assay; remark: listed apart in the source
[7] = biological target: human PD-L1 on the cell surface (human, UniProt Q9NZQ7 19-290); test: cell-based or functional assay
recombinant human CD47 [8] = biological target: T2, recombinant human CD47; test: SPR, antigen immobilised, antibody as analyte
recombinant human PDL1 = biological target: T4, recombinant human PDL1 (human, UniProt Q9NZQ7 19-238, limits assumed); test: SPR, antigen immobilised, antibody as analyte
T4 construct: SPR antigen; also called CD274; B7-H1

recombinant human LILRB2 = biological target: T5, recombinant human LILRB2 (human, UniProt Q8N423 22-460, limits assumed); test: SPR, antibody captured by anti-framework IgG, antigen as analyte (without avidity)
T5 construct: also called ILT4

[9] = biological target: T6, recombinant cynomolgus PDL1 (cynomolgus monkey, UniProt G7PSE7 19-238); test: SPR, antigen immobilised, antibody as analyte
T6 construct: also called cynom; PDL1

[10] = biological target: T7, recombinant cynomolgus CD47 (cynomolgus monkey, UniProt A0A2K5X523 19-139); test: SPR, antigen immobilised, antibody as analyte
T7 construct: also called cynom; CD47

[11] = biological target: T1, human CD47 on the cell surface; test: cell-based or functional assay; remark: listed apart in the source

T3 sequence (Q8N423 22-597): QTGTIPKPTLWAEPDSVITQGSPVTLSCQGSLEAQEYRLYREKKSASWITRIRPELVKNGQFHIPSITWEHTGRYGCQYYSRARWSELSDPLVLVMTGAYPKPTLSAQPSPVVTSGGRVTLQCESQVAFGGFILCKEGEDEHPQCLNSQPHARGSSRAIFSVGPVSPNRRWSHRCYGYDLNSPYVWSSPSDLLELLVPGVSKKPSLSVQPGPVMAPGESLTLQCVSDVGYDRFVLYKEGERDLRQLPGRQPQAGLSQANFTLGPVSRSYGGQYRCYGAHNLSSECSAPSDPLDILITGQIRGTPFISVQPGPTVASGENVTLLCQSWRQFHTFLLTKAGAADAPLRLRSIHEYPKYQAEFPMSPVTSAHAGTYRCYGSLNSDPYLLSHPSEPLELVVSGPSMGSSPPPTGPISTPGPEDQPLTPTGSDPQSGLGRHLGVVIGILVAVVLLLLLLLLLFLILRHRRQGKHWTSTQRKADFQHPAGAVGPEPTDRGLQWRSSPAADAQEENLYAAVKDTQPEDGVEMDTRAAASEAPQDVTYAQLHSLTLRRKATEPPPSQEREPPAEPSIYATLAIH
T5 sequence (Q8N423 22-460 limits assumed): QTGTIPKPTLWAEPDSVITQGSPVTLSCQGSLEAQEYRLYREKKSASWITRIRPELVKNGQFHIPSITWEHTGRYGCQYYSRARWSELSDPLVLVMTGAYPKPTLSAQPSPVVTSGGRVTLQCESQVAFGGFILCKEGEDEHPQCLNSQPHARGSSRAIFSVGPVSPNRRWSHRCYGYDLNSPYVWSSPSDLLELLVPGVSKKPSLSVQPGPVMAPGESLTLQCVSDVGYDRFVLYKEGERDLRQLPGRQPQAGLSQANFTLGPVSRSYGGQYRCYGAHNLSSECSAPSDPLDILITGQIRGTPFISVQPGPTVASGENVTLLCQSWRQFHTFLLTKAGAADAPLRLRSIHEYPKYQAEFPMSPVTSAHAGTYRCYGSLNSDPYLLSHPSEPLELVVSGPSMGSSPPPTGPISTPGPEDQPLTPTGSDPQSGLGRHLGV
T6 sequence (G7PSE7 entry or part of it): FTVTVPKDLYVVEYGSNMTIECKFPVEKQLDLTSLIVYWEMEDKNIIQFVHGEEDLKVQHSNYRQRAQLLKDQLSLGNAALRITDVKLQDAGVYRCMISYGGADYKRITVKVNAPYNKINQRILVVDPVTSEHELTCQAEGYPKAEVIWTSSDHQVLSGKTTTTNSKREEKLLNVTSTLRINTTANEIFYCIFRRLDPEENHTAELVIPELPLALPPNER

B1: PRO3851 (bispecific antibody, human IgG1, kappa, L234A L235A)
heavy 1: not shown
heavy 2: QVQLQESGGGLVQPGGSLRLSCAASAYTISRNSMGWFRQAPGKGLEGVAAIESDGSTSYSDSVKGRFTISLDNSKNTLYLEMNSLRAEDTAVYYCAAPKVGLGPRTALGHLAFMTLPALNYWGQGTLVTVSSGGGGSGGGGSGGGGSGGGGSQVQLQESGGGLVQPGGSLRLSCAASAYTISRNSMGWFRQAPGKGLEGVAAIESDGSTSYSDSVKGRFTISLDNSKNTLYLEMNSLRAEDTAVYYCAAPKVGLGPRTALGHLAFMTLPALNYWGQGTLVTVSSDKTHTCPPCPAPEAAGGPSVFLFPPKPKDTLMISRTPEVTCVVVDVSHEDPEVKFNWYVDGVEVHNAKTKPREEQYNSTYRVVSVLTVLHQDWLNGKEYKCKVSNKALPAPIEKTISKAKGQPREPQVCTLPPSRDELTKNQVSLSCAVKGFYPSDIAVEWESNGQPENNYKTTPPVLDSDGSFFLVSKLTVDKSRWQQGNVFSCSVMHEALHNHYTQKSLSLSPG
light: DIQMTQSPSSVSASVGDRVTITCRASQGISRWLAWYQQKPGKAPKLLIYAASSLQSGVPSRFSGSGSGTDFTLTISSLQPEDFATYYCQQTVSFPITFGGGTKVEIKRTVAAPSVFIFPPSDEQLKSGTASVVCLLNNFYPREAKVQWKVDNALQSGNSQESVTEQDSKDSTYSLSSTLTLSKADYEKHKVYACEVTHQGLSSPVTKSFNRGEC
CD47 driven EC50 [nM], phagocytosis of Nalm6 cells [1]: 0.99 nM
CD47 driven EC50 [nM], phagocytosis of A375 cells [2]: 0.9 nM
CD47 driven EC50 [nM], phagocytosis of H292 cells [3]: 1.82 nM
CD47 driven EC50 [nM], phagocytosis of RBCs [3]: 3 nM

B2: PRO3703 (scFv)
scFv: DVQMTQSPSSLSASVGDRVTITCQASQSISSWVSWYQQKPGKPPKLLIYRGGYLESGVPSRFSASGSGTDFTLTISSLQPEDFATYYCQSTDSSTYGGAFGCGTKVTVLGGGGGSGGGGSGGGGSGGGGSQQVVESGGGLVQPGGSLRLSCAVSGIDLNSYAMTWVRQAPGKCLEWIGYIGSASSTYYASWASGRFTISKDNSKNTVYLQMNSLRAEDSAVYFCARGSTYINIWGQGTLVKVSS
notes: anti-CD47 scFv; also called 70-26-B04-sc03
Kd (recombinant human CD47 [4]): 11900 pM
koff (recombinant human CD47 [4]): 0.029 s⁻¹
kon (recombinant human CD47 [4]): 2.44e+06 M⁻¹ s⁻¹

B3: PRO4672 (antibody)
chain 1: DVQMTQSPSSLSASVGDRVTITCQASQSISSWVSWYQQKPGKPPKLLIYRGGYLESGVPSRFSASGSGTDFTLTISSLQPEDFATYYCQSTDSSTYGGAFGCGTKVTVLGGGGGSGGGGSGGGGSGGGGSQQVVESGGGLVQPGGSLRLSCAVSGIDLNSYAMTWVRQAPGKCLEWIGYIGSASSTYYASWASGRFTISKDNSKNTVYLQMNSLRAEDSAVYFCARGSTYINIWGQGTLVKVSSEPKSSDKTHTCPPCPAPELLGGPSVFLFPPKPKDTLMISRTPEVTCVVVDVSHEDPEVKFNWYVDGVEVHNAKTKPREEQYNSTYRVVSVLTVLHQDWLNGKEYKCKVSNKALPAPIEKTISKAKGQPREPQVYTLPPCREEMTKNQVSLSCAVKGFYPSDIAVEWESNGQPENNYKTTPPVLDSDGSFFLVSKLTVDKSRWQQGNVFSCSVMHEALHNHYTQKSLSLSPGKGGGGSGGGGSDVQMTQSPSSLSASVGDRVTITCQASQSIGSNLAWYQQKPGKPPKLLIYKGGTLESGVPSRFSGSGSGTDFTLTISSLQPEDFATYYCQSTAGSSRSGNYGYVFGCGTKVTVLGGGGGSGGGGSGGGGSGGGGSQQLVESGGGLVQPGGSLRLSCAASGFSFTNNYYMCWVRQAPGKCLEWIACMLVGAWGNTYYASWANGRFTISKDNSKNTVYLQMNSLRAEDSAVYFCARARDYTWTLGGDPETSGFNLWGQGTLVKVSS
chain 2: not shown
notes: trispecific anti-PDL1 x CD47 x LILRB2, (scFv)2-Fc-(scFv)2, 37-20-B03-based PDL1-BD
CD86 EC50 [nM], re-polarization of M2 macrophages [5]: 0.079 nM
CD163 EC50 [nM], re-polarization of M2 macrophages [5]: 0.067 nM
CD206 EC50 [nM], re-polarization of M2 macrophages [5]: 0.12 nM
IL-1β EC50 [nM], LPS-driven cytokine secretion [6]: 0.096 nM
IL-6 EC50 [nM], LPS-driven cytokine secretion [6]: 0.078 nM
TNF-α EC50 [nM], LPS-driven cytokine secretion [6]: 0.123 nM
CD47 driven EC50 [nM], phagocytosis of Nalm6 cells [1]: 15.3 nM
PD-L1 driven EC50 [nM], phagocytosis of H292 cells [7]: 0.32 nM
CD47 driven EC50 [nM], phagocytosis of H292 cells [3]: 8.32 nM
CD47 driven EC50 [nM], phagocytosis of RBCs [3]: 39.4 nM
Kd (recombinant human CD47 [8]): 57200 pM
koff (recombinant human CD47 [8]): 0.0256 s⁻¹
kon (recombinant human CD47 [8]): 448000 M⁻¹ s⁻¹
Kd (recombinant human PDL1): 120 pM
koff (recombinant human PDL1): 0.000126 s⁻¹
kon (recombinant human PDL1): 1.05e+06 M⁻¹ s⁻¹
Kd (recombinant human LILRB2): 370 pM
koff (recombinant human LILRB2): 8.9e-05 s⁻¹
kon (recombinant human LILRB2): 240000 M⁻¹ s⁻¹

The next lines start with the values.

CD86 EC50 [nM], re-polarization of M2 macrophages [5]: 0.085 nM
CD163 EC50 [nM], re-polarization of M2 macrophages [5]: 0.058 nM
CD206 EC50 [nM], re-polarization of M2 macrophages [5]: 0.128 nM
IL-1β EC50 [nM], LPS-driven cytokine secretion [6]: 0.0705 nM
IL-6 EC50 [nM], LPS-driven cytokine secretion [6]: 0.063 nM
TNF-α EC50 [nM], LPS-driven cytokine secretion [6]: 0.141 nM
CD47 driven EC50 [nM], phagocytosis of A375 cells [2]: 12.1 nM
PD-L1 driven EC50 [nM], phagocytosis of H292 cells [7]: 0.19 nM
CD47 driven EC50 [nM], phagocytosis of H292 cells [3]: 10.9 nM
CD47 driven EC50 [nM], phagocytosis of RBCs [3]: 44.6 nM
Kd [9]: 8.4 pM
Kd (recombinant human CD47 [8]): 21000 pM
koff (recombinant human CD47 [8]): 0.011 s⁻¹
kon (recombinant human CD47 [8]): 510000 M⁻¹ s⁻¹
Kd [10]: 21000 pM
Kd (recombinant human PDL1): 16 pM
koff (recombinant human PDL1): 3.3e-05 s⁻¹
kon (recombinant human PDL1): 2.2e+06 M⁻¹ s⁻¹
Kd (recombinant human LILRB2): 350 pM
koff (recombinant human LILRB2): 9.2e-05 s⁻¹
kon (recombinant human LILRB2): 260000 M⁻¹ s⁻¹
B4: PRO5055 (antibody, human IgG1, kappa)
chain: B3 chain 1
heavy: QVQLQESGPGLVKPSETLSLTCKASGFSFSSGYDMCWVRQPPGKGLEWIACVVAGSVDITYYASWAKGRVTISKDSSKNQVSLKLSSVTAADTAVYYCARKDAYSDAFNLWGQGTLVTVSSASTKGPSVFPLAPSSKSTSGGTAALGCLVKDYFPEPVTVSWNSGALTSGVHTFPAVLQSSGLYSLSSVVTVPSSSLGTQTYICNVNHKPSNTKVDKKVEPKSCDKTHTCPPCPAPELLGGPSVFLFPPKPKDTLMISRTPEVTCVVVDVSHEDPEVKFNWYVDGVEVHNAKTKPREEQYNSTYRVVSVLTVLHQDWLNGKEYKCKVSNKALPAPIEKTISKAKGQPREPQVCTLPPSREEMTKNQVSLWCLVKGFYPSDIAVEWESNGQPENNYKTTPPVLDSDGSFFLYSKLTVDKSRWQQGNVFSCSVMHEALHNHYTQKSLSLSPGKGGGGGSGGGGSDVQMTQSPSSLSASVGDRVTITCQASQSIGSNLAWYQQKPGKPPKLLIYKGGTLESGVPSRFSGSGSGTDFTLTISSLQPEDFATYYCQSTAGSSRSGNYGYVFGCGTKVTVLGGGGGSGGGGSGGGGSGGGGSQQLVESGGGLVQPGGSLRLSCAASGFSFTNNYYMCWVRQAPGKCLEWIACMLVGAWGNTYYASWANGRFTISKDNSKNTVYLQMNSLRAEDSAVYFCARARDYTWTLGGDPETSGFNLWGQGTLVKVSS
light: DIQMTQSPSSLSASVGDRVTITCQASQSINDYLAWYQQKPGKAPKLLIYKGGTLASGVPSRFSGSGSGTDFTLTISSLQPEDFATYYCQQGYIITDIDNVFGQGTKVEIKRTVAAPSVFIFPPSDEQLKSGTASVVCLLNNFYPREAKVQWKVDNALQSGNSQESVTEQDSKDSTYSLSSTLTLSKADYEKHKVYACEVTHQGLSSPVTKSFNRGEC
notes: trispecific anti-PDL1 x CD47 x LILRB2; PDL1-BD as Fab; also called PRO4687 with 33-03-G02-based PDL1-BD

CD86 EC50 [nM], re-polarization of M2 macrophages [5]: 0.082 nM
CD163 EC50 [nM], re-polarization of M2 macrophages [5]: 0.073 nM
CD206 EC50 [nM], re-polarization of M2 macrophages [5]: 0.134 nM
IL-1β EC50 [nM], LPS-driven cytokine secretion [6]: 0.082 nM
IL-6 EC50 [nM], LPS-driven cytokine secretion [6]: 0.077 nM
TNF-α EC50 [nM], LPS-driven cytokine secretion [6]: 0.117 nM
CD47 driven EC50 [nM], phagocytosis of A375 cells [2]: 19.3 nM
PD-L1 driven EC50 [nM], phagocytosis of H292 cells [7]: 0.2 nM
CD47 driven EC50 [nM], phagocytosis of H292 cells [3]: 10.9 nM
CD47 driven EC50 [nM], phagocytosis of RBCs [3]: 39.8 nM
Kd [9]: 12 pM
Kd (recombinant human CD47 [8]): 34000 pM
koff (recombinant human CD47 [8]): 0.022 s⁻¹
kon (recombinant human CD47 [8]): 660000 M⁻¹ s⁻¹
Kd [10]: 32000 pM
Kd (recombinant human PDL1): 13 pM
koff (recombinant human PDL1): 2.9e-05 s⁻¹
kon (recombinant human PDL1): 2.3e+06 M⁻¹ s⁻¹
Kd (recombinant human LILRB2): 190 pM
koff (recombinant human LILRB2): 5.4e-05 s⁻¹
kon (recombinant human LILRB2): 290000 M⁻¹ s⁻¹
B5: PRO5052 (antibody)
chain 1: B3 chain 1
chain 2: not shown
notes: trispecific anti-PDL1 x CD47 x LILRB2, (scFv)2-Fc-(scFv)2; also called PRO4672 with 33-03-G02-based PDL1-BD

CD47 driven EC50 [nM], phagocytosis of A375 cells [11]: 76.9 nM
PD-L1 driven EC50 [nM], phagocytosis of H292 cells [7]: 0.13 nM
CD47 driven EC50 [nM], phagocytosis of H292 cells [3]: 54.3 nM
Kd (recombinant human CD47 [8]): 56600 pM
koff (recombinant human CD47 [8]): 0.0249 s⁻¹
kon (recombinant human CD47 [8]): 439000 M⁻¹ s⁻¹
Kd (recombinant human PDL1): 10.5 pM
koff (recombinant human PDL1): 2.13e-05 s⁻¹
kon (recombinant human PDL1): 2.02e+06 M⁻¹ s⁻¹
B6: PRO5056 (antibody, human IgG1, kappa)
chain: DVQMTQSPSSLSASVGDRVTITCQASQSISSWVSWYQQKPGKPPKLLIYRGGYLESGVPSRFSASGSGTDFTLTISSLQPEDFATYYCQSTDSSTYGGAFGCGTKVTVLGGGGGSGGGGSGGGGSGGGGSQQVVESGGGLVQPGGSLRLSCAVSGIDLNSYAMTWVRQAPGKCLEWIGYIGSASSTYYASWASGRFTISKDNSKNTVYLQMNSLRAEDSAVYFCARGSTYINIWGQGTLVKVSSEPKSSDKTHTCPPCPAPELLGGPSVFLFPPKPKDTLMISRTPEVTCVVVDVSHEDPEVKFNWYVDGVEVHNAKTKPREEQYNSTYRVVSVLTVLHQDWLNGKEYKCKVSNKALPAPIEKTISKAKGQPREPQVYTLPPCREEMTKNQVSLSCAVKGFYPSDIAVEWESNGQPENNYKTTPPVLDSDGSFFLVSKLTVDKSRWQQGNVFSCSVMHEALHNHYTQKSLSLSPGKGGGGSGGGGSDIQMTQSPSSLSASVGDRVTITCQSSESVYSNNQLSWYQQKPGQPPKLLIYDASDLASGVPSRFSGSGSGTDFTLTISSLQPEDFATYYCAGGFSSSSDTAFGCGTKLTVLGGGGGSGGGGSGGGGSGGGGSEVQLVESGGGLVQPGGSLRLSCAASGFSLSSNAMGWVRQAPGKCLEYIGIISVGGFTYYASWAKGRFTISRDNSKNTVYLQMNSLRAEDSATYFCARDRHGGDSSGAFYLWGQGTLVKVSS
heavy: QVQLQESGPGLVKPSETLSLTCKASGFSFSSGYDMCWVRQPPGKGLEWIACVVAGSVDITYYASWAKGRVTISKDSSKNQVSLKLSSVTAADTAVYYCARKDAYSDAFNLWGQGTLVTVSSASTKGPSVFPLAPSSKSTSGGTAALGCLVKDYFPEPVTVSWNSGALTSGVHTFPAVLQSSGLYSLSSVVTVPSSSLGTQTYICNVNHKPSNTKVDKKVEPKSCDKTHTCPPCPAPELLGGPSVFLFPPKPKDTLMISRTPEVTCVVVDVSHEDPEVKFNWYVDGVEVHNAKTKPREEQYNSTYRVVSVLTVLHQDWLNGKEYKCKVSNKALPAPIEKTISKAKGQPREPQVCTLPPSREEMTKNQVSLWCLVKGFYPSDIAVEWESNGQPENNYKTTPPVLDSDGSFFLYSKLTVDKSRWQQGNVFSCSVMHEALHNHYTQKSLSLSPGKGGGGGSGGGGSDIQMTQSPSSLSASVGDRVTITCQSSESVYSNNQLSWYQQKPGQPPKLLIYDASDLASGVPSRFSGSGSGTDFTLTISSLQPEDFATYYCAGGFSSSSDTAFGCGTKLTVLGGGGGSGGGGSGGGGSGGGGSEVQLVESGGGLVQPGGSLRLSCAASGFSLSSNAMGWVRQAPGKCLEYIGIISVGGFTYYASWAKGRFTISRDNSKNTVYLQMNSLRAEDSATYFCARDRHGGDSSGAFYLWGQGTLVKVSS
light: B4 light
notes: anti-PDL1 x CD47 x (hSA dummy domain); also called PRO5055 with dummy domain for LILRB2-BD
